Laboratory results published in patent US20180244762A1.

What was measured:
[1] = target: recombinant human PDGF-BB (human) (UniProt P01127); assay: competitive ELISA: binder preincubated with 0.2 nM rhPDGF-BB, competitor immobilized PDGFR/Fc
[2] = target: recombinant human PDGF-BB (human) (UniProt P01127); assay: cell-based or functional assay
[3] = target: recombinant human PDGF-BB (human) (UniProt P01127); assay: optical biosensor (Proteon XPR36 / Biacore 2000), binder amine-coupled, rhPDGF-BB injected, 25 C

recombinant human PDGF-BB (human), sequence (P01127 82-190): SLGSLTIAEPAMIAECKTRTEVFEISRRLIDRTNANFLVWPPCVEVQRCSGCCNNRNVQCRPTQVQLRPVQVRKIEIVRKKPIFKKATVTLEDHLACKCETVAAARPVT

IC50 [1]: 0.066 nM
Inhibition of PDGF induced proliferation of HPVPs, IC50 [2]: 5.4 nM
Kd [3]: 0.107 nM
Substance: reference anti-PDGF-BB antibody (R&D Systems, Catalog # AB-220-NA)
